Experiments:
[1] = tested on: endogenously expressed APP in SH-SY5Y cells; assay: Aβ1-40 double antibody sandwich ELISA on conditioned medium of transfected SH-SY5Y cells; format: cell-based, human; conditions: SH-SY5Y cells transfected with BACE construct; control = empty vector, set as 100%
Method: Cells were harvested 3 days after plating and processed for Western Blotting experiments as described above.
Cell culture supernatants harvested 72 hours after plating were analyzed in a standard double antibody isoform-specific Aβ1-40 ELISA (BioSource International) as follows. […] The detecting antibody is specific for Abeta 1-40 and the conjugated secondary antibody is an anti-rabbit IgG conjugated to horseradish peroxydase. Synthetic human Aβ1-40 standard peptides are serially diluted in the supplied sample diluent for the generation of standard curves.
Human Abeta 1-40 standards were added after washing the plate, as well as 100 μl/well of sample, e.g., conditioned medium of transfected cells. The plate was incubated at 4[deg.] C. overnight. The next day, after washing the plate four times, 100 μl/well rabbit detection antibody was added and incubated for 2 hours on an orbital plate shaker at 20 degree C. […] 100 μl/well stop solution was added and absorbance of each well was read at 450 nm within two hours, with a solution of 100 μl each of chromogen and stop solution as the blank. […] The samples with absorbance values falling within the standard curve were extrapolated (by comparison to the values obtained for the A-β40 and A-β42 standard peptides analyzed on the same plate) from the standard curves and expressed in pg/ml culture medium.

[2] = tested on: endogenously expressed APP isoforms in SH-SY5Y cells; assay: Western blot of C99 fragment generation in transfected SH-SY5Y cells; format: cell-based, human
Method: SH-SY5Y cells for transfection were grown to 80% confluence in Dulbecco's modified Eagle's medium (DMEM) with 10% fetal bovine serum. Transfections were performed using LipofectAmine Plus (Gibco-BRL) with […] per 10*10<6>cells. Three days posttransfection, cells were passaged into medium containing G418 at a concentration of 400 μg/ml. After twenty days growth in selective medium, individual clones were selected and plated into each well of one 96 well plate containing growth medium plus G418. Clones were expanded from the 96 well plate to a 24 well plate and then to a 6 well plate. Clones which had lost initial neuronal-like morphology were not amplified. BACE455 or BACE501 expression in selected clones was assayed by Western Blotting and immunohistochemical analysis using Cterminal-specific antibody.
Cells were harvested 3 days after plating. Cells were washed twice with PBS and lysed in 1 ml CellLytic solution (Sigma) plus protease inhibitors cocktail (Roche Diagnostics) for 15 min. […] Following electrotransfer of the separated polypeptides to PVDF membranes, APP and C99 proteolytic fragment were detected with C-terminal-specific rabbit anti-APP antibody (Serotec, UK) at 1/500 in PBS-Tween 20 0.1%, and the antibody-antigen complexes were visualized using alkaline phosphatase conjugated goat anti-rabbit antibodies (1/5000). […]

Molecule	Aβ release (% of control) [1]	C99 production ([2]; SH-SY5Y cells transformed with the BACE455 construct vs empty vector)	APP levels ([2]; overexpression of BACE455 in SH-SY5Y cells)
BACE501: native full-length human BACE isoform (variant a), NM_012104 (protein, UniProt P56817 1-501, looked up, full-length, native full-length human BACE isoform (variant a), NM_012104) MAQALPWLLLWMGAGVLPAHGTQHGIRLPLRSGLGGAPLGLRLPRETDEEPEEPGRRGSFVEMVDNLRGKSGQGYYVEMTVGSPPQTLNILVDTGSSNFAVGAAPHPFLHRYYQRQLSSTYRDLRKGVYVPYTQGKWEGELGTDLVSIPHGPNVTVRANIAAITESDKFFINGSNWEGILGLAYAEIARPDDSLEPFFDSLVKQTHVPNLFSLQLCGAGFPLNQSEVLASVGGSMIIGGIDHSLYTGSLWYTPIRREWYYEVIIVRVEINGQDLKMDCKEYNYDKSIVDSGTTNLRLPKKVFEAAVKSIKAASSTEKFPDGFWLGEQLVCWQAGTTPWNIFPVISLYLMGEVTNQSFRITILPQQYLRPVEDVATSQDDCYKFAISQSSTGTVMGAVIMEGFYVVFDRARKRIGFAVSACHVHDEFRTAAVEGPFVTLDMEDCGYNIPQTDESTLMTIAYVMAAICALFMLPLCLMVCQWRCLRCLRQQHDDFADDISLLK	193.15 ± 2.73 % of control		
BACE455: new isoform of human beta-secretase (BACE) lacking exon 4, 455 amino acid residues, SEQ ID NO: 2 (protein, listed as Homo sapiens) MAQALPWLLLWMGAGVLPAHGTQHGIRLPLRSGLGGAPLGLRLPRETDEEPEEPGRRGSFVEMVDNLRGKSGQGYYVEMTVGSPPQTLNILVDTGSSNFAVGAAPHPFLHRYYQRQLSSTYRDLRKGVYVPYTQGKWEGELGTDLVSIPHGPNVTVRANIAAITESDKFFINGSNWEGILGLAYAEIARIIGGIDHSLYTGSLWYTPIRREWYYEVIIVRVEINGQDLKMDCKEYNYDKSIVDSGTTNLRLPKKVFEAAVKSIKAASSTEKFPDGFWLGEQLVCWQAGTTPWNIFPVISLYLMGEVTNQSFRITILPQQYLRPVEDVATSQDDCYKFAISQSSTGTVMGAVIMEGFYVVFDRARKRIGFAVSACHVHDEFRTAAVEGPFVTLDMEDCGYNIPQTDESTLMTIAYVMAAICALFMLPLCLMVCQWRCLRCLRQQHDDFADDISLLK	199.95+18 % of control	strongly increased	no influence

Source: patent publication US20100317830A1, “BACE455, AN ALTERNATIVE SPLICE VARIANT OF THE HUMAN BETA-SECRETASE” (EXONHIT THERAPEUTICS SA, priority 2003, published 2010)
